Columns and labels:
RBP SH3-I = assay: Isothermal titration calorimetry (ITC), peptide titrated into RBP SH3-I; type: binding, Drosophila; settings: 25°C, result in words
RBP SH3-II+III = assay: Isothermal titration calorimetry (ITC), peptide titrated into tandem RBP SH3-II+III; type: binding, Drosophila; settings: second and third SH3 domain of RBP
Procedure: ITC experiments were performed at 25°C on an iTC200 microcalorimeter (Malvern Instruments Ltd., United Kingdom). The same peptides were employed as used for the co-crystallization experiments (see below). Lyophilized peptides were resuspended in the final buffer of the proteins (10 mM Tris-HCl pH 7.4, 100 mM NaCl). RBP SH3-II and SH3-III were both provided at a concentration of 150 µM, RBP SH3-II+III was provided at 78 µM. The proteins were titrated with 16 injections of 2.5 µl of either Aplip1, Cac, RIM1 or RIM2 peptide at a concentration of 2 mM with 2-min intervals. The released heat was obtained by integrating the calorimetric output curves. Binding parameters were calculated using the Origin5 software using the ‘One Set of Sites’ curve fitting model provided by the software.
For crystallization experiment the RBP SH3-II was concentrated to 56 mg/ml and the RBP SH3-III to 62 mg/ml. The same peptides as for ITC measurements were used and synthesized at the Leibniz Institute for Molecular Pharmacology with N-terminal acetylation and C-terminal amidation. The unsolubilized peptides were mixed in a fivefold molar excess with the protein solution and incubated for 2 hr on ice. Insoluble peptide was removed by centrifugation (16,000×g for 1 min) prior to crystallization experiments. All crystallization experiments were carried out at 291 K in a sitting drop setup. […]

RBP SH3-III = assay: Semi-quantitative liquid Y2H ß-galactosidase assay, bait RBP SH3-III; type: cell-based, Drosophila; settings: n = 3 independent experiments, mean ± SEM
From the text: (§1) The plasmids (pP6 and pB27) encode tryptophan (Trp) and leucine (Leu) biosynthesis genes, and were successfully double transformed into the TATA strain lacking genes for synthesis of Leu and Trp which can be followed by positive growth in LT media. Reporter genes for the protein–protein interaction are HIS3, which can be later detected by growth on plates lacking histidin, as well as lacZ which allows the detection of interaction in a more quantitative fashion with a β-galactosidase assay. To transform the yeast cells with the pP6 and pB27 vector respectively the LiAc/single strand DNA/PEG technique was used ([Gietz and Schiestl, 2007]).
(§2) The assay was carried out as described in JH Miller ‘Experiments in Molecular Genetics’ 1972 Cold Spring Harbor Laboratories pages 352–355.
(§3) The RBP constructs for Y2H were cloned into pB27 bait vector. The RBP cDNA clone AT04807 (Drosophila Genomics Resource Centre) was used as a template for PCR reaction. For amplification the following primers were used: […]

RBP SH3-II = assay: Semi-quantitative liquid Y2H ß-galactosidase assay, bait RBP SH3-II; type: cell-based, Drosophila; settings: n = 3 independent experiments, mean ± SEM
From the text: as §1, §2, §3

[1] = test system: RBP SH3-III* (Prolin1500 → Leucin); assay: Semi-quantitative liquid Y2H ß-galactosidase assay, bait point-mutated RBP SH3-III*; type: cell-based, Drosophila; settings: n = 3 independent experiments, mean ± SEM
From the text: as §1, §2
(§4) By applying the site-directed mutagenesis strategy, different constructs were designed for RBP using mutated primers. Mutagenesis was carried out by Dr Martin Meixner (SMB. GmbH, Germany,). The following point mutations were used:
RBP SH3-III*: Prolin1500 → Leucin

[2] = test system: RBP SH3-II* (Prolin1373 → Leucin); assay: Semi-quantitative liquid Y2H ß-galactosidase assay, bait point-mutated RBP SH3-II*; type: cell-based, Drosophila; settings: n = 3 independent experiments, mean ± SEM
From the text: as §1, §2, §4
RBP SH3-II*: Prolin1373 → Leucin

[3] = target: T1, RBP SH3-III (ITC construct) (D. melanogaster); assay: ITC; 25°C, iTC200; RBP SH3-II and SH3-III at 150 µM, SH3-II+III at 78 µM in the cell, titrated with 16 injections of 2.5 µl peptide at 2 mM; 10 mM Tris-HCl pH 7.4, 100 mM NaCl; 'One Set of Sites' model; settings: both partners purified
T1 construct: it may be the same protein; also called RBP-BP SH3-III
T1 chain: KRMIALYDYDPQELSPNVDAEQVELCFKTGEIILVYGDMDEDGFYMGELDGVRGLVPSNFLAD

[4] = target: T2, RBP SH3-II (residue 1318–1382; ITC and crystallisation construct) (D. melanogaster); assay: as above; settings: both partners purified
T2 construct: pGEX-6P1, EcoRI/XhoI; also called RBP-BP SH3-II; source: E. coli BL21-CodonPlus-RIL, purified (glutathione sepharose, PreScission cleavage, Superdex 75); not shown: GST, N-terminal, cleaved
T2 chain: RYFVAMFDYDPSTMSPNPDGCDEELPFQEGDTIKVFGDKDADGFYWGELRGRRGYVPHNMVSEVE

[5] = target: T3, RBP SH3-II (residue 1318–1382; ITC and crystallisation construct) (D. melanogaster); assay: ITC
T3 chain: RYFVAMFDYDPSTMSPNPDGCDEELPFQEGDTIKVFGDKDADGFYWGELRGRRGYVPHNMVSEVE

[6] = target: T4, RBP SH3-III (ITC construct) (D. melanogaster); assay: ITC
T4 chain: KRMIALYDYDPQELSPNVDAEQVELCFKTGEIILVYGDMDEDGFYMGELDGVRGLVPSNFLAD

[7] = target: T5, RBP SH3-II+III (ITC construct) (D. melanogaster); assay: ITC
T5 chain: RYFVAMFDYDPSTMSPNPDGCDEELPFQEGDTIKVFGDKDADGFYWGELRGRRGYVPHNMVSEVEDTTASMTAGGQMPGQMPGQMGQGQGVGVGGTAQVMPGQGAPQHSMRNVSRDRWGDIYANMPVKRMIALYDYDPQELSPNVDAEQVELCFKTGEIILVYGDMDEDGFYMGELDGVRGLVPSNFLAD

[8] = target: T2, RBP SH3-II (residue 1318–1382; ITC and …); assay: crystal structure; co-crystallisation of the SH3 domain with a fivefold molar excess of peptide, sitting drop, 291 K; settings: both partners purified
[9] = target: T6, RBP SH3-II+III (ITC construct) (D. melanogaster); assay: ITC; 25°C, iTC200; RBP SH3-II and SH3-III at 150 µM, SH3-II+III at 78 µM in the cell, titrated with 16 injections of 2.5 µl peptide at 2 mM; 10 mM Tris-HCl pH 7.4, 100 mM NaCl; 'One Set of Sites' model; settings: both partners purified
T6 construct: Cloning and purification of this construct are not described; also called tandem SH3-II+III; RBP-BP SH3-II+SH3-III
T6 chain: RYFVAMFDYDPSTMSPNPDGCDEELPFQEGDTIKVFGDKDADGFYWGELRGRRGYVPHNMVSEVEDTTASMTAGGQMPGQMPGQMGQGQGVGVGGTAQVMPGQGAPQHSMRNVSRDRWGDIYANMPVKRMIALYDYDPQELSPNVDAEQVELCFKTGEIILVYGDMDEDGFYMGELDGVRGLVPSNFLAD

[10] = target: T7, RBP SH3-III (residue 1441–1507; crystallisation construct) (D. melanogaster); assay: crystal structure; co-crystallisation of the SH3 domain with a fivefold molar excess of peptide, sitting drop, 291 K; settings: both partners purified
T7 construct: pGEX-6P1, EcoRI/XhoI; linker residues may remain at the N-terminus after PreScission cleavage; source: E. coli BL21-CodonPlus-RIL, purified (glutathione sepharose, PreScission cleavage, Superdex 75); not shown: GST, N-terminal, cleaved
T7 chain: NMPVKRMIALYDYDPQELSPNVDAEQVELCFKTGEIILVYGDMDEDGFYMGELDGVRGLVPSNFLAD

In the case of Ac-TRRRRKLPEIPKNKK-NH2 [Aplip1], the “binding to RBP SH3-I” value (RBP SH3-I) is reported as “could not detect any binding” and the “affinity relative to RBP binding of its synaptic ligands (Ca2+ channels/RIM)” value (RBP SH3-II+III) is reported as “more than 10 fold”.

“EDDELGDGLKVTLSSDGSLDTNDSFNSHRHHPLNHQDAIGGFLGMDTSGLGGNSAPVTIGASTDLLAPNTAATRRRRKLAEIAKNKKSSILHLLGGSNFGSLADEFRNGGGGGIPPAVRSGQQRSFLSLKCGYLMDEDS [Aplip1-AxxA1, Y2H prey fragment of Aplip1 (139 AA) with mutated first PxxP motif (P156 → A; P159 → A)]” was tested, and the “mean ß-Gal4 units: RBP SH3-III” value (RBP SH3-III) was 0.2 ± 0.0 ß-Gal4 units and the “mean ß-Gal4 units: RBP SH3-II” value (RBP SH3-II) was 0.1 ± 0.1 ß-Gal4 units.

With “EDDELGDGLKVTLSSDGSLDTNDSFNSHRHHPLNHQDAIGGFLGMDTSGLGGNSAPVTIGASTDLLAPNTAATRRRRKLPEIPKNKKSSILHLLGGSNFGSLADEFRNGGGGGIPPAVRSGQQRSFLSLKCGYLMDEDS [Aplip1-PxxP1, Y2H prey fragment of Aplip1 (139 AA) containing only the first PxxP motif]” the “mean ß-Gal4 units: RBP SH3-III*” value [1] was 0.1 ± 0.0 ß-Gal4 units, the “mean ß-Gal4 units: RBP SH3-III” value (RBP SH3-III) was 29.1 ± 7.4 ß-Gal4 units and the “mean ß-Gal4 units: RBP SH3-II*” value [2] was 0.1 ± 0.0 ß-Gal4 units. The “mean ß-Gal4 units: RBP SH3-II” value (RBP SH3-II) was 24.3 ± 6.6 ß-Gal4 units.

With “LLGGSNFGSLADEFRNGGGGGIPPAVRSGQQRSFLSLKCGYLMDEDSSPDSERMQSLGDVDSGHSTAHSPNDFKSMSPQITSPVSQSPFPPPFGGVPFGQ [Aplip1-PxxP2, Y2H prey fragment of Aplip1 (100 AA) containing only the second PxxP motif]” the “mean ß-Gal4 units: RBP SH3-III” value (RBP SH3-III) was 0.2 ± 0.1 ß-Gal4 units and the “mean ß-Gal4 units: RBP SH3-II” value (RBP SH3-II) was 0.2 ± 0.0 ß-Gal4 units.

B1: RIM2 peptide (GRQLPQLPPKGT) (peptide)
peptide: Ac-GRQLPQLPPKGT-NH2
notes: PxxP peptide named RIM2; May be a mammalian RIM2 motif or one of two motifs of Drosophila RIM; source: synthetic peptide (Leibniz Institute for Molecular Pharmacology)
In the case of B1, the binding result [3] is reported as “binds”, the binding result [4] is reported as “binds” and the Kd [5] is reported as 20 µM. For the same molecule, the Kd [6] was 12.5 µM and the Kd [7] was 35.7 µM.

B2: RIM1 peptide (GRQLPQVPVRSG) (peptide)
peptide: Ac-GRQLPQVPVRSG-NH2
notes: PxxP peptide named RIM1; May be a mammalian RIM1 motif or one of two motifs of Drosophila RIM; source: synthetic peptide (Leibniz Institute for Molecular Pharmacology)
For B2, the binding result [3] was “binds”, the binding result [4] was “binds” and the Kd [5] was 10.4 µM. It also gave a Kd [6] of 8.4 µM and a Kd [7] of 16 µM.

B3: Aplip-PxxP1 peptide (149-TRRRRKLPEIPKNKK-163) (peptide)
peptide: Ac-TRRRRKLPEIPKNKK-NH2
notes: Aplip1, D. melanogaster, residues 149-163 with the first PxxP motif; also called Aplip1 peptide; Aplip1-PxxP1 peptide; source: synthetic peptide (Leibniz Institute for Molecular Pharmacology)
B3: binds [8]; binds [3]; binds [9]. It also gave a Kd [5] of 4.1 µM, a Kd [6] of 1.4 µM and a Kd [7] of 0.54 µM.

B4: Cac peptide (1685-IGRRLPPTPSKPSTL-1699) (peptide)
peptide: Ac-IGRRLPPTPSKPSTL-NH2
notes: also called Cacophony peptide; Cac-derived peptide; source: synthetic peptide (Leibniz Institute for Molecular Pharmacology)
B4: binds [8]; binds [10]; binds [3]. For the same molecule, the Kd [5] was 20.2 µM, the Kd [6] was 17.3 µM and the Kd [7] was 31.3 µM.

— paper PMC4536467, “A high affinity RIM-binding protein/Aplip1 interaction prevents the formation of ectopic axonal active zones” (eLife, 2015)
